These results are taken from paper PMC12667839.

The target of the series is T1, GST-FOXL2-FHD (UniProt O88470 48-144).
T1 sequence: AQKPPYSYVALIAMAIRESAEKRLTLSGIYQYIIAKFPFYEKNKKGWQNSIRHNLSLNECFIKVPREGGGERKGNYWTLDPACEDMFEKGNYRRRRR
Kind of series: EMSA.

B1: Enh 3 wt (SBE/FBE1&2) (dsDNA)
DNA 1: GCCTTGATGTGTCTGGCTCAGAGCTGGCTAGAAGGCCAAGGCTATATGC
DNA 2: GCATATAGCCTTGGCCTTCTAGCCAGCTCTGAGCCAGACACATCAAGGC
Turning to B1, the binding result is listed as “no binding”.
